For data set [1], the system named is Rho-His6 (transcription termination factor Rho) (Acinetobacter baumannii AB5075). Description: EMSA. Particulars: LightShift chemiluminescent RNA EMSA kit components, 20 uL, 1 h at room temperature; 5% acrylamide TBE gel, 0.5x TBE, 100 V 120 min at 4 C; salt and pH not ….
The target of data set [2] is T1, Rho-His6 (transcription termination factor Rho) (Acinetobacter baumannii AB5075) (UniProt A0ABX6CC36). Description: competition.
The target of data set [3] is T1, Rho-His6 (transcription termination factor Rho) (Acinetobacter baumannii AB5075). Description: EMSA.

In the case of ABUW_1645 mRNA leader, in data set [1], the Kd is 20 nM.

As to ABUW_1959 mRNA leader, in data set [1], the Kd is 29 nM. Take “GGGCUUUGCCUGCUAGCCACAUUGCUAGCGGGUUUUAGCAGACCCUAUUUAAACAAAGACGAUAGACAGAACCUAGUUUUGUGUGUCGUGAACUCGUUCGCCCCCUUUUUCUCUAUGGUAGGGCGGAAGGGGGACACCUUCGGGUGUGCUGGUUUCUUUGUUUUCCAGUCUGCUAACCCUCUUUCGUCCUGCCAGUACUGAUC [ABUW_1645 mRNA leader, unlabeled competitor]”: the binding entry in data set [2] is “binds”. As for “GGGCUUUGCCUGCUAGCCACAUUGCUAGCGGGUUUUAGCAGACCCUAUUUAAACAAAGACGAUAGACAGAACCUAGUUUUGUGUGUCGUGAACUCGUUCGCCCCCUUUUUCUCUAUGGUAGGGCGGAAGGGGGACACCUUCGGGUGUGCUGGUUUCUUUGUUUUCCAGUCUGCUAACCCUCUUUCGUCCUGCCAGUACUGAUC [ABUW_1645 mRNA leader]”, the Kd in data set [3] was 20 nM.

(Values after article PMC10790780.)
